Measurements reported in IntAct's records for PubMed 31515488.

B1: Isoform 1 of Myotubularin-related protein 9 (Homo sapiens), Q96QG7-1 (parent)
chain: MEFAELIKTPRVDNVVLHRPFYPAVEGTLCLTGHHLILSSRQDNTEELWLLHSNIDAIDKRFVGSLGTIIIKCKDFRIIQLDIPGMEECLNIASSIEALSTLDSITLMYPFFYRPMFEVIEDGWHSFLPEQEFELYSSATSEWRLSYVNKEFAVCPSYPPIVTVPKSIDDEALRKVATFRHGGRFPVLSYYHKKNGMVIMRSGQPLTGTNGRRCKEDEKLINATLRAGKRGYIIDTRSLNVAQQTRAKGGGFEQEAHYPQWRRIHKSIERYHILQESLIKLVEACNDQTHNMDRWLSKLEASNWLTHIKEILTTACLAAQCIDREGASILIHGTEGTDSTLQVTSLAQIILEPRSRTIRGFEALIEREWLQAGHPFQQRCAQSAYCNTKQKWEAPVFLLFLDCVWQILRQFPCSFEFNENFLIMLFEHAYASQFGTFLGNNESERCKLKLQQKTMSLWSWVNQPSELSKFTNPLFEANNLVIWPSVAPQSLPLWEGIFLRWNRSSKYLDEAYEEMVNIIEYNKELQAKVNILRRQLAELETEDGMQESP
partner: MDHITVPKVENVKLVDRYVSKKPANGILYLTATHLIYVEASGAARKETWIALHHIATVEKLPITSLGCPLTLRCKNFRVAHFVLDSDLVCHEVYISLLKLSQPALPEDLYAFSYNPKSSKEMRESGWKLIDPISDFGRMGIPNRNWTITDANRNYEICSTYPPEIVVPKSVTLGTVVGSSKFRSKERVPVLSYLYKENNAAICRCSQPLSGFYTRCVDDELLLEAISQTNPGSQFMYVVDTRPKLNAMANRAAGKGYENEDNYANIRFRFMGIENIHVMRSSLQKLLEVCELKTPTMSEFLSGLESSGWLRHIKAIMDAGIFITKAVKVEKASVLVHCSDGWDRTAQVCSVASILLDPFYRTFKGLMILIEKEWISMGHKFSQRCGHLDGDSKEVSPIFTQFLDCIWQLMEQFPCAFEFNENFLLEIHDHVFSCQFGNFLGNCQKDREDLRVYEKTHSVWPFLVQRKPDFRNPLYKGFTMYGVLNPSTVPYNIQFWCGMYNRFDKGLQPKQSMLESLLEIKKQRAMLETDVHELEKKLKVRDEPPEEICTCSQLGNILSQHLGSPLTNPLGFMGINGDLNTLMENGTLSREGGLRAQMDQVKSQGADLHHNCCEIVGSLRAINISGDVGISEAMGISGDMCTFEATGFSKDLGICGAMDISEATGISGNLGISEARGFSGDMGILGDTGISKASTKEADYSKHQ
B2: Dynein light chain 2, cytoplasmic (Homo sapiens), Q96FJ2 (parent)
chain: MSDRKAVIKNADMSEDMQQDAVDCATQAMEKYNIEKDIAAYIKKEFDKKYNPTWHCIVGRNFGSYVTHETKHFIYFYLGQVAILLFKSG
partner: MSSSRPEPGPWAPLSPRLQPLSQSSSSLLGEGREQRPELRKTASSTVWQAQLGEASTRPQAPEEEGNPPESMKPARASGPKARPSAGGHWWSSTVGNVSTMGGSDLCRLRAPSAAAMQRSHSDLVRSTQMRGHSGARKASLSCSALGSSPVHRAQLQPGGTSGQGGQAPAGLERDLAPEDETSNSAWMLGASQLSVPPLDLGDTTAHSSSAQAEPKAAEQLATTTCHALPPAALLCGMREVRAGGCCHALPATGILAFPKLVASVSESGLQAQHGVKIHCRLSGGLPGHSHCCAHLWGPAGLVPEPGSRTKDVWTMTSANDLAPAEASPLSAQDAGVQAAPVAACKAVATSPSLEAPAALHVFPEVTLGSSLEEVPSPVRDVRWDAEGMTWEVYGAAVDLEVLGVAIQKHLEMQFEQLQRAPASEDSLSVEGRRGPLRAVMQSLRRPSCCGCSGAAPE
B3: WASH complex subunit 3 (Homo sapiens), Q9Y3C0 (parent)
chain: MDEDGLPLMGSGIDLTKVPAIQQKRTVAFLNQFVVHTVQFLNRFSTVCEEKLADLSLRIQQIETTLNILDAKLSSIPGLDDVTVEVSPLNVTSVTNGAHPEATSEQPQQNSTQDSGLQESEVSAENILTVAKDPRYARYLKMVQVGVPVMAIRNKMISEGLDPDLLERPDAPVPDGESEKTVEESSDSESSFSD
partner: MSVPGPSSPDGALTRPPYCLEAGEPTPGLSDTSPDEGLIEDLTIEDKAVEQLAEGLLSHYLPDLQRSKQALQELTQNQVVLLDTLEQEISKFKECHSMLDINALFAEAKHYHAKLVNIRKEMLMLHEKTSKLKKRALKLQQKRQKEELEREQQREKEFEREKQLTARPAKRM
B4: MAP kinase-activated protein kinase 3 (Homo sapiens), Q16644 (parent)
chain: MDGETAEEQGGPVPPPVAPGGPGLGGAPGGRREPKKYAVTDDYQLSKQVLGLGVNGKVLECFHRRTGQKCALKLLYDSPKARQEVDHHWQASGGPHIVCILDVYENMHHGKRCLLIIMECMEGGELFSRIQERGDQAFTEREAAEIMRDIGTAIQFLHSHNIAHRDVKPENLLYTSKEKDAVLKLTDFGFAKETTQNALQTPCYTPYYVAPEVLGPEKYDKSCDMWSLGVIMYILLCGFPPFYSNTGQAISPGMKRRIRLGQYGFPNPEWSEVSEDAKQLIRLLLKTDPTERLTITQFMNHPWINQSMVVPQTPLHTARVLQEDKDHWDEVKEEMTSALATMRVDYDQVKIKDLKTSNNRLLNKRRKKQAGSSSASQGCNNQ
B5: Programmed cell death 6-interacting protein (Homo sapiens), Q8WUM4 (parent)
chain: MATFISVQLKKTSEVDLAKPLVKFIQQTYPSGGEEQAQYCRAAEELSKLRRAAVGRPLDKHEGALETLLRYYDQICSIEPKFPFSENQICLTFTWKDAFDKGSLFGGSVKLALASLGYEKSCVLFNCAALASQIAAEQNLDNDEGLKIAAKHYQFASGAFLHIKETVLSALSREPTVDISPDTVGTLSLIMLAQAQEVFFLKATRDKMKDAIIAKLANQAADYFGDAFKQCQYKDTLPKEVFPVLAAKHCIMQANAEYHQSILAKQQKKFGEEIARLQHAAELIKTVASRYDEYVNVKDFSDKINRALAAAKKDNDFIYHDRVPDLKDLDPIGKATLVKSTPVNVPISQKFTDLFEKMVPVSVQQSLAAYNQRKADLVNRSIAQMREATTLANGVLASLNLPAAIEDVSGDTVPQSILTKSRSVIEQGGIQTVDQLIKELPELLQRNREILDESLRLLDEEEATDNDLRAKFKERWQRTPSNELYKPLRAEGTNFRTVLDKAVQADGQVKECYQSHRDTIVLLCKPEPELNAAIPSANPAKTMQGSEVVNVLKSLLSNLDEVKKEREGLENDLKSVNFDMTSKFLTALAQDGVINEEALSVTELDRVYGGLTTKVQESLKKQEGLLKNIQVSHQEFSKMKQSNNEANLREEVLKNLATAYDNFVELVANLKEGTKFYNELTEILVRFQNKCSDIVFARKTERDELLKDLQQSIAREPSAPSIPTPAYQSSPAGGHAPTPPTPAPRTMPPTKPQPPARPPPPVLPANRAPSATAPSPVGAGTAAPAPSQTPGSAPPPQAQGPPYPTYPGYPGYCQMPMPMGYNPYAYGQYNMPYPPVYHQSPGQAPYPGPQQPSYPFPQPPQQSYYPQQ
partner: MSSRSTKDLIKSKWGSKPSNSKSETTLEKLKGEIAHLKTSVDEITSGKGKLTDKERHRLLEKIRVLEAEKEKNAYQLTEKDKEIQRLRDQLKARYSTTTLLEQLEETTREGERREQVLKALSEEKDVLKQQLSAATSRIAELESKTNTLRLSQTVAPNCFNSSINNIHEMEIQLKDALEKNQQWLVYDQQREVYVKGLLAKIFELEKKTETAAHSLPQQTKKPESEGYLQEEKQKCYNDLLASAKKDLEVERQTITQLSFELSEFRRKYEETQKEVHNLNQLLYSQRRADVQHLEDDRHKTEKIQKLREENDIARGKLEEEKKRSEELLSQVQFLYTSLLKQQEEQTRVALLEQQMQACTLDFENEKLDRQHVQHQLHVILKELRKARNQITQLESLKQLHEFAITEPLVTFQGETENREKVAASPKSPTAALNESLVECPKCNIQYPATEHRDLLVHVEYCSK

Variants of: B1
Conditions: with mtmr8_human MTMR8, Q96EF0

| Variant | effect of a mutation on the interaction |
| --- | --- |
| F127I | with no effect |

Variants of: B1
Conditions: with mtmr8_human MTMR8, Q96EF0
Remark: another data set of the same source

| Variant | effect of a mutation on the interaction |
| --- | --- |
| S126C | with no effect |

Variants of: B2
Conditions: with grin2_human GPRIN2, O60269

| Variant | effect of a mutation on the interaction |
| --- | --- |
| N33S | with no effect |

Variants of: B3
Conditions: with bl1s6_human BLOC1S6, Q9UL45

| Variant | effect of a mutation on the interaction |
| --- | --- |
| F44L | with no effect |

Variants of: B4
Conditions: with mk14_human MAPK14, Q16539
mk14_human MAPK14, Q16539, sequence (Q16539 whole entry): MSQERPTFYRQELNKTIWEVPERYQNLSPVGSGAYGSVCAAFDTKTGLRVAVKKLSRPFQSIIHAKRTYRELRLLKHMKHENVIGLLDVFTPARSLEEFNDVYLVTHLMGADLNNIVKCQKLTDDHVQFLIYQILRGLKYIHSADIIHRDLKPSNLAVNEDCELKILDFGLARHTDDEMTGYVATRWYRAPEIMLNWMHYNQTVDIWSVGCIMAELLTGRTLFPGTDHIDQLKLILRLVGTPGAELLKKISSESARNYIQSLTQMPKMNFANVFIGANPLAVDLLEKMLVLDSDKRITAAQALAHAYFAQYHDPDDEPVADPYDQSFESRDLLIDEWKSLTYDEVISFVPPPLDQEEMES

| Variant | effect of a mutation on the interaction |
| --- | --- |
| E105A | with no effect |

Variants of: B5
Conditions: with cep55_human CEP55, Q53EZ4

| Variant | effect of a mutation on the interaction |
| --- | --- |
| N550S | with no effect |
